Measured values from patent US20100081612A1 (GENERAL HOSPITAL, published 2010).
Like-named read-outs stand apart in the source and are kept apart here. Where no end group is shown, it is not given here. [ ]: non-standard residue; d: D form. Cha = N[C@@H](CC1CCCCC1)C(=O)O

T1: wild-type human PTHR (human, UniProt Q03431 27-593)
T1 sequence (looked up): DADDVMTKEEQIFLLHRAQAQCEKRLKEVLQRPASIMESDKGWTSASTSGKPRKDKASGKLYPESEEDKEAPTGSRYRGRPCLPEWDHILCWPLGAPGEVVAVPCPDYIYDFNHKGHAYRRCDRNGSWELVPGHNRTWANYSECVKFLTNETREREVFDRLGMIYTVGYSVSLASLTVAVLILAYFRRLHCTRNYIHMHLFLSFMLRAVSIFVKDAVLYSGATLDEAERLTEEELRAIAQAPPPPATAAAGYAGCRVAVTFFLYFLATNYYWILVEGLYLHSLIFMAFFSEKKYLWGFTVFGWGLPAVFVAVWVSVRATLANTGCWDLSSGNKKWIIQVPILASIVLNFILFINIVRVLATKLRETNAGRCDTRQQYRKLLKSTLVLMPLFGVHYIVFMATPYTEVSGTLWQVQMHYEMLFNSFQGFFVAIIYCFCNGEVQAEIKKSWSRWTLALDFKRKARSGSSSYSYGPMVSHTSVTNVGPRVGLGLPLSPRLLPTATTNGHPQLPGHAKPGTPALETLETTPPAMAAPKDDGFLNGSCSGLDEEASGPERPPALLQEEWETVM


Columns and labels:
wild-type human PTHR [1] = target: T1, wild-type human PTHR; experiment: cell-based or functional assay
wild-type human PTHR [2] = target: T1, wild-type human PTHR; experiment: competition binding, HKRK-B7 cells, 125I-PTH(1-34) tracer
Description: Receptor binding—Binding to the wild-type human PTHR in intact HKRK-B7 cells and ROS 17/2.8 cells was assessed using ¹²⁵I-PTH(1-34) as a tracer radioligand, as described (Shimizu, M., (2001) Endocrinology 142:3068-3074). In brief, the cells in 24-well plates (about 500,000 cells per well) were incubated in binding buffer containing radioligand (about 100,000 cpm per well) with or without unlabeled peptide ligand (3×10⁻⁹ to 1×10⁻⁵ M) for four hours at 15° C. The binding mixture was then removed by aspiration, the cells were rinsed three times with binding buffer, lysed in 1 M NaOH, and the entire lysate was counted for gamma-irradiation in a gamma counter. Binding to PTHR-delNt in COS-7 cell membranes was assessed in 96-well, vacuum filtration plates (Multiscreen-Durapore HV, […], Millipore Corp., Millford, Mass.) using ¹²⁵I-[Aib^{1,3},M]PTH(1-15)NH₂ as a tracer radioligand, as described (Dean, T., (2006) Mol Endocrinol 20:931-942). In brief, cell membranes (20 μg/well) were incubated in membrane binding buffer containing radioligand (30,000 cpm/well) with or without unlabeled peptide ligand (3×10⁻⁹ to 1×10⁻⁵ M) for 90 minutes at 21° C. The plates were then subject to rapid vacuum filtration, the filters were washed once with buffer, detached from the plate and counted for gamma-irradiation in a gamma counter. Non-specific binding was defined as the binding observed in the presence of 1×10⁻⁶ M PTH(1-31)NH₂ for HKRK-B7 and ROS 17/2.8 cells, and 1×10⁻⁶ M [Aib^{1,3},M]PTH(1-15)NH₂ for PTHR-delNt. Specifically bound radioactivity was calculated as a percentage of the radioactivity specifically bound in the absence of competing ligand.
Alanine-Scan of the PTH(17-31) domain—Each residue in the (17-31) region of PTH(1-31)NH₂ was individually replaced with alanine and the effects of the substitutions on binding to the intact human PTHR stably expressed in HKRK-B7 cells was assessed. Competition binding studies were performed using whole cells and ¹²⁵I-PTH(1-34) (¹²⁵I-[Nle^{8,21},Tyr³⁴]ratPTH(1-34)NH₂) as a tracer radioligand.

PTHR-delNt (human) = PTHR-delNt (human) (UniProt Q03431); experiment: competition binding, COS-7 membranes, 125I-[Aib1,3,M]PTH(1-15) tracer
wild-type human PTHR [3] = target: T1, wild-type human PTHR; experiment: competition binding, HKRK-B7 cells, 125I-PTH(1-34) tracer; remark: listed apart in the source
wild-type human PTHR [4] = target: T1, wild-type human PTHR; experiment: as above; remark: listed apart in the source
How it was run: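 Intact HKRK-B7 cells stably expressing hPTHR incubated 4 h at 15° C with ¹²⁵I-PTH(1-34) tracer and unlabeled peptide (3×10⁻⁹ to 1×10⁻⁵ M). Nonspecific binding defined with 1×10⁻⁶ M PTH(1-31)NH₂. Bound activity counted after lysis and expressed as % specific binding without competitor; values in nM, mean ± s.e.m.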

Binder	inositol phosphate (IP) production, peptide at 1×10^-6 M (wild-type human PTHR [1]) [fold]	IC50 (wild-type human PTHR [2]) [nM]	IC50 (PTHR-delNt (human)) [nM]	fold reduction in binding affinity vs PTH(1-31)NH2 (PTHR-delNt (human)) [fold]	fold change in binding affinity vs PTH(1-31)NH2 (wild-type human PTHR [3]) [fold]	fold enhancement in binding affinity vs PTH(1-31)NH2 (wild-type human PTHR [3]) [fold]	fold reduction in binding affinity vs PTH(1-31)NH2 (wild-type human PTHR [3]) [fold]	fold change in binding affinity vs [Ala^1,Arg^19]PTH(1-31)NH2 (wild-type human PTHR [3]) [fold]	IC50 (wild-type human PTHR [4]) [nM]	fold change in binding affinity vs [Ala^1,Arg^19]PTH(1-31)NH2 (PTHR-delNt (human)) [fold]
SVSEIQLMHNLGKHLNSMERVEWLRKKLQDV-NH2 (also called hPTH(1-31)NH2; parental PTH(1-31)NH2 peptide) [human PTH(1-31)NH2]	4	68	3670							
SVSEIQLMHNLGKHLNSMEAVEWLRKKLQDV-NH2 [PTH(1-31)NH2 Arg^20→Ala]	4	> 10000	19300	5						
SVSEIQLMHNLGKHLNSMERVEWLAKKLQDV-NH2 [PTH(1-31)NH2 Arg^25→Ala]	4	281	7180							
SVSEIQLMHNLGKHLNSMERVEWLRKKLQAV-NH2 [PTH(1-31)NH2 Asp^30→Ala]	4	63	1540		≤ 2					
SVSEIQLMHNLGKHLNSMERVEWLRKKLADV-NH2 [PTH(1-31)NH2 Gln^29→Ala]	4	44	1930			≤ 2				
SVSEIQLMHNLGKHLNSMARVEWLRKKLQDV-NH2 [PTH(1-31)NH2 Glu^19→Ala]	4	49	2940			≤ 2				
SVSEIQLMHNLGKHLNSMERVAWLRKKLQDV-NH2 [PTH(1-31)NH2 Glu^22→Ala]	4	36	5860			≤ 2				
SVSEIQLMHNLGKHLNSMERVEWARKKLQDV-NH2 [PTH(1-31)NH2 Leu^24→Ala]	4	807	8760	2			12			
SVSEIQLMHNLGKHLNSMERVEWLRKKAQDV-NH2 [PTH(1-31)NH2 Leu^28→Ala]	4	290	3460							
SVSEIQLMHNLGKHLNSMERVEWLRAKLQDV-NH2 [PTH(1-31)NH2 Lys^26→Ala]	4	125	6210		≤ 2					
SVSEIQLMHNLGKHLNSMERVEWLRKALQDV-NH2 [PTH(1-31)NH2 Lys^27→Ala]	4	217	7290							
SVSEIQLMHNLGKHLNSAERVEWLRKKLQDV-NH2 [PTH(1-31)NH2 Met^18→Ala]	4	92	8800		≤ 2					
SVSEIQLMHNLGKHLNAMERVEWLRKKLQDV-NH2 [PTH(1-31)NH2 Ser^17→Ala]	4	57	4580		≤ 2					
SVSEIQLMHNLGKHLNSMERVEALRKKLQDV-NH2 [PTH(1-31)NH2 Trp^23→Ala]	4	1310	7360	2			19			
SVSEIQLMHNLGKHLNSMERAEWLRKKLQDV-NH2 [PTH(1-31)NH2 Val^21→Ala]	4	200	5690							
SVSEIQLMHNLGKHLNSMERVEWLRKKLQDA-NH2 [PTH(1-31)NH2 Val^31→Ala]	4	176	4910							
AVSEIQLMHNLGKHLNSMRRVEWLRKKLQD[Cha]-NH2 (N-terminus assumed; SMILES CC[C@H](C)[C@H](NC(=O)[C@H](CCC(=O)O)NC(=O)[C@H](CO)NC(=O)[C@@H](NC(=O)[C@H](C)N)C(C)C)C(=O)N[C@@H](CCC(N)=O)C(=O)N[C@@H](CC(C)C)C(=O)N[C@@H](CCSC)C(=O)N[C@@H](Cc1c[nH]cn1)C(=O)N[C@@H](CC(N)=O)C(=O)N[C@@H](CC(C)C)C(=O)NCC(=O)N[C@@H](CCCCN)C(=O)N[C@@H](Cc1c[nH]cn1)C(=O)N[C@@H](CC(C)C)C(=O)N[C@@H](CC(N)=O)C(=O)N[C@@H](CO)C(=O)N[C@@H](CCSC)C(=O)N[C@@H](CCCNC(=N)N)C(=O)N[C@@H](CCCNC(=N)N)C(=O)N[C@H](C(=O)N[C@@H](CCC(=O)O)C(=O)N[C@@H](Cc1c[nH]c2ccccc12)C(=O)N[C@@H](CC(C)C)C(=O)N[C@@H](CCCNC(=N)N)C(=O)N[C@@H](CCCCN)C(=O)N[C@@H](CCCCN)C(=O)N[C@@H](CC(C)C)C(=O)N[C@@H](CCC(N)=O)C(=O)N[C@@H](CC(=O)O)C(=O)N[C@@H](CC1CCCCC1)C(N)=O)C(C)C) [[Ala^1,Arg^19]hPTH(1-31)NH2 Val^31→Cha]			466					≤ 6	66	< 3
AVSEIQLMHNLGKHLNSMRRVEWL[Cha]KKLQDV-NH2 [[Ala^1,Arg^19]hPTH(1-31)NH2 Arg^25→Cha]			2710					≤ 6	103	
AVSEIQLMHNLGKHLNSMRRVEWLR[Cha]KLQDV-NH2 (N-terminus assumed; SMILES CC[C@H](C)[C@H](NC(=O)[C@H](CCC(=O)O)NC(=O)[C@H](CO)NC(=O)[C@@H](NC(=O)[C@H](C)N)C(C)C)C(=O)N[C@@H](CCC(N)=O)C(=O)N[C@@H](CC(C)C)C(=O)N[C@@H](CCSC)C(=O)N[C@@H](Cc1c[nH]cn1)C(=O)N[C@@H](CC(N)=O)C(=O)N[C@@H](CC(C)C)C(=O)NCC(=O)N[C@@H](CCCCN)C(=O)N[C@@H](Cc1c[nH]cn1)C(=O)N[C@@H](CC(C)C)C(=O)N[C@@H](CC(N)=O)C(=O)N[C@@H](CO)C(=O)N[C@@H](CCSC)C(=O)N[C@@H](CCCNC(=N)N)C(=O)N[C@@H](CCCNC(=N)N)C(=O)N[C@H](C(=O)N[C@@H](CCC(=O)O)C(=O)N[C@@H](Cc1c[nH]c2ccccc12)C(=O)N[C@@H](CC(C)C)C(=O)N[C@@H](CCCNC(=N)N)C(=O)N[C@@H](CC1CCCCC1)C(=O)N[C@@H](CCCCN)C(=O)N[C@@H](CC(C)C)C(=O)N[C@@H](CCC(N)=O)C(=O)N[C@@H](CC(=O)O)C(=O)N[C@H](C(N)=O)C(C)C)C(C)C) [[Ala^1,Arg^19]hPTH(1-31)NH2 Lys^26→Cha]			1870					≤ 6	172	
